Test results from paper PMC3745449.

Experiments:
[1] = molecular target: His6-tagged N-terminal domain of turkey pancreatic lipase (turkey)
[2] = molecular target: His6-tagged N-terminal domain of turkey pancreatic lipase (turkey); remark: listed apart in the source

Substance: Turkey colipase (natural protein)
- time for which N-TPL stays active in tributyrin (TC4) hydrolysis (pH-Stat, pH 8.5, 37°C) with colipase; without colipase the activity is lost after 3 min [1]: > 8 min
- increase of N-TPL lipase activity on tributyrin (TC4) when colipase is present in the hydrolysis medium [2]: 15%
